Patent US20150344548A1

Experiments:
[1] = molecular target: Staphylococcus aureus protein A (SpA) in the cell wall of SA bacteria (strain ATCC #25923 and clinical isolate 00X) (Staphylococcus aureus); assay: flow cytometry: SA clinical isolate 00X incubated with biotinylated MABp1 (negative control), then streptavidin-APC; mean fluorescence FL4-H from the table beside the histogram (top panel)
[2] = molecular target: Staphylococcus aureus protein A (SpA) in the cell wall of SA bacteria (strain ATCC #25923 and clinical isolate 00X) (Staphylococcus aureus); assay: flow cytometry: SA strain ATCC #25923 incubated with biotinylated MABp1 (negative control), then streptavidin-APC; mean fluorescence FL4-H from the table beside the histogram (bottom panel)
[3] = molecular target: Staphylococcus aureus protein A (SpA) in the cell wall of SA bacteria (strain ATCC #25923 and clinical isolate 00X) (Staphylococcus aureus); assay: flow cytometry: SA clinical isolate 00X pre-incubated with human sera for 15 minutes, then biotinylated MABp1-IgG3 (isotype-matched negative control), then streptavidin-APC (top panel)
[4] = molecular target: Staphylococcus aureus protein A (SpA) in the cell wall of SA bacteria (strain ATCC #25923 and clinical isolate 00X) (Staphylococcus aureus); assay: flow cytometry: SA strain ATCC #25923 by the legend (printed on the sheet as 25935) pre-incubated with human sera for 15 minutes, then biotinylated MABp1-IgG3 (isotype-matched negative control), then streptavidin-APC (bottom panel)

MABp1-IgG1 (antibody)
Mean:FL4-H [1]: 29.8 | Mean:FL4-H [2]: 46.7

MABp1-IgG3 (antibody)
Mean:FL4-H [3]: 19.1 | Mean:FL4-H [4]: 10.3
